Data published in PMC10952227.

Assays:
[1] = biological target: Guanylyl cyclase-A (GC-A), human (human) (UniProt P16066)
[2] = biological target: Guanylyl cyclase-A (GC-A), human (human) (UniProt P16066); assay: radioligand binding; whole GC-A-expressing QBIHEK293A cells; 50 pmol/L 125I-ANP with increasing concentrations of compound #20; DMEM with 1% BSA; 4°C, 1 h

Sequence of UniProt P16066 (P16066 33-473): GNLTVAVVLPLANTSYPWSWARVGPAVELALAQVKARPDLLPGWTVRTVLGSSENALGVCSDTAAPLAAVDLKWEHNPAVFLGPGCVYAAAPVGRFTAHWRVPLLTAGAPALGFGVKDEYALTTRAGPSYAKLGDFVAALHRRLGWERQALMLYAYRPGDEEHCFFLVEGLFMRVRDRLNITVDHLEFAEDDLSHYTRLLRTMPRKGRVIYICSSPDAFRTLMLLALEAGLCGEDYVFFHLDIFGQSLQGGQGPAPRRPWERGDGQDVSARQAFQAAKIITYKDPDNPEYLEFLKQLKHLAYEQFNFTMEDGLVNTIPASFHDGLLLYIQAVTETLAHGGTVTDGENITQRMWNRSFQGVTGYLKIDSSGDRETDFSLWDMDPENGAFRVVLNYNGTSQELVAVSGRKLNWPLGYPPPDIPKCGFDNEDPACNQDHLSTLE

Substance | cGMP production (AlphaScreen) in GC-A-expressing QBIHEK293A cells, concentration-response of human BNP without compound: EC50 [1] | increase of binding by increasing concentrations of compound #20 [2]
Brain natriuretic peptide (BNP) | 1 nM | –
^125I-ANP (peptide) | – | 71%
